Measured values: the nanobody polyreactivity screen of Harvey et al. (2022)

Test: yeast display, Sf9 membrane polyspecificity reagent, FACS + sequencing; frameworks hold sequencing errors
How it was run: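 A nanobody's polyreactivity label depends on the gate it was sorted from. Yeast display cells were stained with 10% biotinylated, detergent-solubilized Sf9 membrane reagent for 1 hour at 4 °C, enriched on streptavidin microbeads and sorted by FACS. The low and high (top ~1%) gates were set on anti-HA fluorescence for expression and streptavidin fluorescence for reagent binding.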

Row | Sequence | polyreactivity (PSR sort gate)
1 | QVQLVESGGGLVQAGGSLRLSCADSGSTFEANAMGWYRQAPGKERELVAAISSGGRTYYADSEKGRFTISRDNAKNTVYLKRNSLKPEDTAVYYCAAYVRRGFDWGQGTQVTVSS | high polyreactivity
2 | QVQLVESGGGLVQAGGSLRLSCADSGSTFRRKVMGWYRQAPGKERELVASIRSGGTTNYADSVKGRFTISRDNAKNTVYLQMNSLKPEDTAVYYCAAARSRGYYRASAEVLYGYWGQGTQVTVSS | high polyreactivity
3 | QVQLVESGGGLVQAGGSLRLSCADSGSTFSPDAMGWYIQAPGKERALVAAIRYSGTSTYYADSVKGRFTISRDNAKKTVYLQMNSLKPEDTAVYYCNTVFKYQGVRPYGYWGQGTQVTVSS | high polyreactivity
4 | QVQLVESGGGLVQAGGSLRLSCADSGSTFWFYTMGWYRQAPGKERELVATITSGGSTNYADSVKGRFTISRDNAKNTVYLQMNSLKPEDTAVYYCAASSVLTNHDYWGQGTQVTVSS | low polyreactivity
5 | QVQLVESGGGLVQAGGSLRLSCADSGYTFSPNAMGWYRQAPGKELELVAAISSAVSTDYADSVKGRFTISRDNAKNTVYLQMNSLKPEDTAVYYCAADDQYRVTLGYDYWGQGTQVTVSS | low polyreactivity
6 | QVQLVESGGGLVQAGGSLRLSCADSGYTFVYNAMGWYRQPPGKEREFVAAITWSGTSTRYADSVKGRFTISRDNAKNTVYLQMNSLKPEDTAVYYCAALGSGVPRYYYWGQGTQVTVSS | high polyreactivity
7 | QVQLVESGGGLVQAGGSLRLSCAFYYGMGWYRQAPGKERELVAAITLGGGSTYYADSVKGRFTISRDNAKNTVYLQMNSLKPEDTAVYYCNVTDVTEPSLIDGYYWGQGTQVTVSS | low polyreactivity
8 | QVQLVESGGGLVQAGGSLRLSCAGSGATYERYAMGWSRPAPGKERALVAASNKRGGNTYYADSVKGRFTISRDNAKKTVYLQMNSLKPEDTAVYYCAADHLDRTEFPYYYWGQGTQVTVSS | high polyreactivity
9 | QVQLVESGGGLVQAGGSLRLSCAGSGHIFPYNAMGWYRQGPGKEREFVAAISFRGGSRYYADSEKGRFTISRDNAKNTVYLQMNSLKPEDTAVYYCAKRSYPWGQGTQVTVSS | low polyreactivity
10 | QVQLVESGGGLVQAGGSLRLSCAGSGIIFRGYDMGWYRQAPGKEMELVAAITWRGGSTYYADSVKGRFTISRDNAKNTVYLQMNSLKPEDTAVYYCAAVRKHSWFRHMDYWGQGTLVTVSS | high polyreactivity
11 | QVQLVESGGGLVQAGGSLRLSCAGSGLIFRIYAMGWYTQAPGKEREFVAAIRWRGGSTYYADSVKGRFTISRDNAKNTVYLQMNSLKPEDSAVYYCAVRYCPYRPRLDYWGQGTQVTVSS | high polyreactivity
12 | QVQLVESGGGLVQAGGSLRLSCAGSGRIFFWYVMGWYRQAPGKERELVAAISSGGRTYYADSVKGRFTISRDNAKNTVYLQMNSLKPEDTAVYYCAAVRRYLKAAYGYWGQGTQVTVSS | low polyreactivity
13 | QVQLVESGGGLVQAGGSLRLSCAGSGRIFRTYAMGWFRQAPGKEGEFVAGISRGGSTDYADSVKGRFTISRDNEKNTVYLQMNSLKPEDSAVYYCAAASLRYYSPRVRYPYYYWGQGTQVTVSS | high polyreactivity
14 | QVQLVESGGGLVQAGGSLRLSCAGSGRTFEINAMGWYRQAPGKERELVAAITVSGGSTYYADSVKGRFTISRDNAKNTVYLQMNSLKPEDTAVYYCAVEIVYGQGKEVNSWGQGTQVTVSS | low polyreactivity
15 | QVQLVESGGGLVQAGGSLRLSCAGSGRTFRTYTRGWYRQAPGKERELVAAISWSGSSTYYADSVKGRFTISRDNAKNTVYLQMNSLKPEDTAVYYCAARGLYDYGYWGQGTQVTVSS | high polyreactivity
16 | QVQLVESGGGLVQAGGSLRLSCAGSGSIFHPYAMGWYRQAPGKERELVAAISKSGGNTYYADSVKGRFTISRDNAKNTVYLQMNSLKPEATAVYYCAALDYWGQGTQVTVSS | low polyreactivity
17 | QVQLVESGGGLVQAGGSLRLSCAGSGSIFSNNAMGWYRQAPGKERELVAAISASGGSTYYADSVKGRFTISRDNAKNTVYLQMNSLKPEDTAVYYCAARGYGWGQGTQVTVSS | high polyreactivity
18 | QVQLVESGGGLVQAGGSLRLSCAGSGSSFAWNDMGWYRHAPGIERALVAAISTSDGSTYYADSVKGRFTISRDNAKNTVYLQMNSLNPEDTAVYYCAADVTRVFYGLYTGEYDYWGLGTQVTVSS | low polyreactivity
19 | QVQLVESGGGLVQAGGSLRLSCAGSGSTFKYYAMGWYRQAPGKARELVAAIRTSGGRTYYADSVKGRFTISRDNAKNTVYLPMNSLKPEDTAVYYCNASSTQFGQRYEYWGQGTQVTVSS | high polyreactivity
20 | QVQLVESGGGLVQAGGSLRLSCAGSGSTFRYNAMGWYRQAPGKERELVAAISQRGGSTYYADSVKGRFTISRDNANNTVYLQMNSLKPEDTAVYYCPGDYWGQGTQVTVSS | high polyreactivity
21 | QVQLVESGGGLVQAGGSLRLSCAGSGSTFYFYVMGWYRQAPGKDRELVAAITWSGGRTSYADSVKGRFTISRDNAKNTVYLQMNSLKPEDTAVYYCNTDGYPRLYIYDYWGQGTQVTVSS | low polyreactivity
22 | QVQLVESGGGLVQAGGSLRLSCAGSGSTILYYVMGWYRQAPGKARELVAAITGTGGRTYYADSVKGRFTISRDNAKNTVYLQMNSLKPEDTAVYYCAADGKFEYDYWGQGTQVTVSS | low polyreactivity

Row | Sequence | polyreactivity (PSR sort gate)
23 | QVQLVESGGGLVQAGGSLRLSCAHSGFIFSLYAMGWYIQAPGKERELVAAISRRGGNTYYADSVKGRFTISRDNGKNTVYLQMNSLKPVDTAVSYCNTGQRYGYDWGQGTQVTVSS | high polyreactivity
24 | QVQLVESGGGLVQAGGSLRLSCAHSGSISSRYAMGWYRQAPGKERELVARITRSGGSTYYADSVKGRFTISRDNAKNTVYLQMNRLKPEDTAVYYCNKRGTEIGYDYWGQGTQVTVLS | low polyreactivity
25 | QVQLVESGGGLVQAGGSLRLSCAPSGFIFYGYAMGWYRPAPGKERELVAAISRRGGSTYYADSVKGRFTISRDDAKNSVYLQMNSLKPEDTAVYYCAATYEVNYRKYGYWGQGTQVTVSS | high polyreactivity
26 | QVQLVESGGGLVQAGGSLRLSCAPSGFTFGDYAMGWYRQSPGTESELDAAISWSGGSTYYADSVKGRFTISRDNAKTTVYLQMNSLKPEDTAVYYCAAVDSATIEDDYWGQGTQVTVSS | high polyreactivity
27 | QVQLVESGGGLVQAGGSLRLSCAPSGFTFRYYGMGWYRQAPGKERELVAAITRTGGSTYYADSVKGRFTISRDNAKYTVYLQMNSLKPEDTAVYFCGAGGSYAYVYWGQGTQVTVSS | high polyreactivity
28 | QVQLVESGGGLVQAGGSLRLSCAPSGFTFSQYAMGWYRQAPGKEREFVAAISRSGGSTYYADSVKGRFTISRDNAKNTVYLQMNSLKPEDTAVYYCAAGLVATFSRRGRASYRYNYWGHGTQVTVSS | high polyreactivity
29 | QVQLVESGGGLVQAGGSLRLSCAPSGFTFTYYAMGWYRQAPGQERELVAAITQSGGSTFYADSVQGRFTISRDNAKNTVYLQMNSLKPEDTAVYYCAADIDLYYDYDYWGQGTQVTVSS | low polyreactivity
30 | QVQLVESGGGLVQAGGSLRLSCAPSGGIYLYYVMGWYRQAPGKERELVADISGDDSTNYADSVKGRFTISRDNAKNTVYLQMNSLKPEDTAVYYCAAVPGLFYLPYEYWGQGTQVTVSS | low polyreactivity
31 | QVQLVESGGGLVQAGGSLRLSCAPSGGTFTHNAMGWYRQAPGKEWELVAAISRSGGSTSYADSVKGRFTISRYNAMNTVYLQMNSLKPEDTAVYYCAALISRQRSYSRDYWGQGTQVTVSS | high polyreactivity
32 | QVQLVESGGGLVQAGGSLRLSCAPSGIIFAYYAKGWYRQAPVKERELVASISSGGTTKYADSVKGRFTISRDNAKNTVYLQMNSLKPEDTAVYYCAAEHRWRSWDMDYWGQGTQVTVSS | low polyreactivity
33 | QVQLVESGGGLVQAGGSLRLSCAPSGIIFHKYAMGWYRQAPGTDRELVAVFTGRGGSTYYADSVKGRFTISRDFAKNTVYLQMNSLKPEDTAVYYCAAVTKSWRGATWYDYWGQGTQVTVSS | high polyreactivity
34 | QVQLVESGGGLVQAGGSLRLSCAPSGIIFIRYAMGWYRQAPGKERELVAAISWRGGSTYYADSVKGRFTISRDNAKNTVYLQMNSLKPEDTAVYYCAAGYFSYRRYDYWGQGTQVTVSS | high polyreactivity
35 | QVQLVESGGGLVQAGGSLRLSCAPSGIILAYYAMGWYRQAPGKERELVAAISRSGGITYYADSVKGRFTISRDNAKNTVYLQMNSLKPEDTAVYYCARYSSRPYDYWGQGTQVTVSS | high polyreactivity
36 | QVQLVESGGGLVQAGGSLRLSCAPSGLIFYHYAMGWYRQAPGKERELVAGITRSGGSTYYADSVKGRFTISRDNAKNTVYLQMNSLKPEDTAVYYCAAKSLTTGKYGKYGYWGQGTQVTVSS | high polyreactivity
37 | QVQLVESGGGLVQAGGSLRLSCAPSGLIIWDYVMGWYRQAPGKERELVAAISRSGGRTYYADSVKGRFTISRDNAKNTVYLQMNSLKPEDTAVYYCAARVRFSYASRSGYWGQGTQVTVSS | high polyreactivity
38 | QVQLVESGGGLVQAGGSLRLSCAPSGLTIVTYAMGWYRQAPRKERELVAAISRSGGSTYYADSVKGRFTISRDNAKNTVYLQMNSLKPEDSAVYYCNAYSYVDLWAVYRYDYWGQGTQVTVSS | high polyreactivity
39 | QVQLVESGGGLVQAGGSLRLSCAPSGRIFGHYAMGWYRQATGKERELVAAINWRGGSTYYADSVNGRFTISRDNAKNTVYLQMNSLKPEDTAVYYCAADWTKARDSIYDYWGQGTQVTVSS | low polyreactivity
40 | QVQLVESGGGLVQAGGSLRLSCAPSGRIFGVYAMGWYRQAPGKERELVATIRSSGTRTNYADSVKGRFTISRDNAKNTVYLQMNSLKPEDTAVYYCAAGGRPYKLDFTRSDYWGQGTQVTVSS | low polyreactivity
41 | QVQLVESGGGLVQAGGSLRLSCAPSGRIFKYNAMGWYRQAPGKERELVAAITSSGASTYYADSVKGRFTISRDIAKHTVYLQMNSLKPVVTAVYYCAARARRKYDYWGQGTQVTLSS | high polyreactivity
42 | QVQLVESGGGLVQAGGSLRLSCAPSGRIFRYYAMGWYRPAPGKERELVAAISSRGASTYYADSVKGRYTISRDNAKNTVYLQMNRVKPEDTAVYYCGVRTYVYHWSFSSLPYVYWGQGTQVTVSS | high polyreactivity
43 | QVQLVESGGGLVQAGGSLRLSCAPSGRIIRPYAKGWYIQAPGKERELVAAISVSGVITYYADSVKGRFTISRDNAKNTVYLQMNSLKPEDTAVYYCATDYTRRRWGRLYDYWGQGTQVTVSS | low polyreactivity
